Data taken from the supplement of paper PMC10065799, “High-throughput profiling of sequence recognition by tyrosine kinases and SH2 domains using bacterial peptide display” (eLife, 2023).

Tests used:
[1] = test system: AncSZ; experiment: phosphorylation enrichment, bacterial display (enrichment ratio); higher = better substrate or ligand; peptides without Tyr show the background
[2] = biological target: EPHB1 (UniProt P54762); experiment: as above
[3] = biological target: EPHB2 (UniProt P29323); experiment: as above
[4] = biological target: FGFR1 (UniProt P11362); experiment: as above
[5] = biological target: FGFR3 (UniProt P22607); experiment: as above
[6] = test system: Fer (mouse); experiment: as above
[7] = biological target: Fes (UniProt P07332); experiment: as above
[8] = biological target: Fyn (UniProt P06241); experiment: as above
[9] = biological target: Hck (UniProt P08631); experiment: as above
[10] = biological target: Jak2 (UniProt O60674); experiment: as above
[11] = biological target: MERTK (UniProt Q12866); experiment: as above
[12] = test system: c-Abl (mouse); experiment: as above
[13] = test system: c-Src; experiment: as above
[14] = biological target: Grb2 SH2 (UniProt P62993); experiment: SH2 binding enrichment of the phosphorylated peptide, bacterial display (enrichment ratio); higher = better substrate or ligand; peptides without Tyr show the background
[15] = biological target: SHP2-C SH2; experiment: as above
[16] = biological target: c-Src SH2; experiment: as above
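Throughout, for SH2 binding enrichment of the phosphorylated peptide, bacterial display: peptide library displayed on the E. coli surface as eCPX fusions, selected cells deep-sequenced, score is each peptide's frequency after selection divided by its frequency in the input.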
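Throughout, for phosphorylation enrichment, bacterial display: 11-residue human phosphosite peptides and single-mutation variants displayed on the E. coli surface, counted by deep sequencing, each peptide's frequency after selection divided by its frequency in the unselected input library; frequency after pTyr selection over input frequency; kinase dosed for 20-30% of maximal phosphorylation in three min.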

Hck, sequence (P08631 whole entry, looked up): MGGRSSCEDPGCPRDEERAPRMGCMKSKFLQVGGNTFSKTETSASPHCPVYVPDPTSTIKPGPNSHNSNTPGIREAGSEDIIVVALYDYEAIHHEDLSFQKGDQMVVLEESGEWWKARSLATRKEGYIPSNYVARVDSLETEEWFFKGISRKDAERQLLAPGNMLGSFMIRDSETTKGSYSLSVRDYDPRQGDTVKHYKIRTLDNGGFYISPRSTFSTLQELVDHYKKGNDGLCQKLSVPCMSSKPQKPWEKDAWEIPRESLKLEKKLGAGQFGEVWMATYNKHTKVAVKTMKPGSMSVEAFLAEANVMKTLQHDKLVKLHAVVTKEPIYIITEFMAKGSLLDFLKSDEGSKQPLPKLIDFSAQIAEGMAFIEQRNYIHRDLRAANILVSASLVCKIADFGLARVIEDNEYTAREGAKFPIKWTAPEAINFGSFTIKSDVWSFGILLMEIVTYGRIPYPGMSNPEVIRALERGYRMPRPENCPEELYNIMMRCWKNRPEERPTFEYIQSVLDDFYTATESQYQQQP
Jak2, sequence (O60674 whole entry, looked up): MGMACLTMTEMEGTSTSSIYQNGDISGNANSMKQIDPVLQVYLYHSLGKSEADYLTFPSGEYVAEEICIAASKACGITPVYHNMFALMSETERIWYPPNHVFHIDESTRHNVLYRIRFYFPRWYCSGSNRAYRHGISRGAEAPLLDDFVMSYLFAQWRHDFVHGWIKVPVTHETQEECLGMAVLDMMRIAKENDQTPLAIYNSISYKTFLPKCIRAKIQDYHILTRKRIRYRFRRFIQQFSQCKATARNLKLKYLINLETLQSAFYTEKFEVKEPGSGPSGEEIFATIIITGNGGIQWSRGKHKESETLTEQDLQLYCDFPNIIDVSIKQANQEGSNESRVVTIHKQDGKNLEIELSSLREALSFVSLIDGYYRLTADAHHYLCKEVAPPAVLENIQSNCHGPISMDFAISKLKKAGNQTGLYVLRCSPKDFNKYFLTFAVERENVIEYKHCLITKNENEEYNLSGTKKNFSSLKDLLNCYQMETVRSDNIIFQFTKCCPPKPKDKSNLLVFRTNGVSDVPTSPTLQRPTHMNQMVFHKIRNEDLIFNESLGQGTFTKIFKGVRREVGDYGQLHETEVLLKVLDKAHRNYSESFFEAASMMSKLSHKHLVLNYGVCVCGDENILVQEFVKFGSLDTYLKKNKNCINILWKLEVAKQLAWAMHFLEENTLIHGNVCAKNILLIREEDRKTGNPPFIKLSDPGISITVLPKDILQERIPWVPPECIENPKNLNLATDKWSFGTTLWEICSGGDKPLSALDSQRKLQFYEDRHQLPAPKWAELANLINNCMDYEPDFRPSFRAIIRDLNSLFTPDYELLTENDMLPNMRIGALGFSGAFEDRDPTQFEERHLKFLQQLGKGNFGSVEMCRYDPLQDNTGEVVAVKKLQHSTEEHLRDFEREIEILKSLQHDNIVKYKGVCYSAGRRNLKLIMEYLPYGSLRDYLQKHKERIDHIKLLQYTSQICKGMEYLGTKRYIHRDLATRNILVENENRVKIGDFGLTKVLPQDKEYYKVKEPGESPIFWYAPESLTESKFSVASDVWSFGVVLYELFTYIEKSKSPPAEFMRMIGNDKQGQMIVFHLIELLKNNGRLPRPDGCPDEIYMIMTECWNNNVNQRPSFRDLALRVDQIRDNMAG
FGFR3, sequence (P22607 whole entry, looked up): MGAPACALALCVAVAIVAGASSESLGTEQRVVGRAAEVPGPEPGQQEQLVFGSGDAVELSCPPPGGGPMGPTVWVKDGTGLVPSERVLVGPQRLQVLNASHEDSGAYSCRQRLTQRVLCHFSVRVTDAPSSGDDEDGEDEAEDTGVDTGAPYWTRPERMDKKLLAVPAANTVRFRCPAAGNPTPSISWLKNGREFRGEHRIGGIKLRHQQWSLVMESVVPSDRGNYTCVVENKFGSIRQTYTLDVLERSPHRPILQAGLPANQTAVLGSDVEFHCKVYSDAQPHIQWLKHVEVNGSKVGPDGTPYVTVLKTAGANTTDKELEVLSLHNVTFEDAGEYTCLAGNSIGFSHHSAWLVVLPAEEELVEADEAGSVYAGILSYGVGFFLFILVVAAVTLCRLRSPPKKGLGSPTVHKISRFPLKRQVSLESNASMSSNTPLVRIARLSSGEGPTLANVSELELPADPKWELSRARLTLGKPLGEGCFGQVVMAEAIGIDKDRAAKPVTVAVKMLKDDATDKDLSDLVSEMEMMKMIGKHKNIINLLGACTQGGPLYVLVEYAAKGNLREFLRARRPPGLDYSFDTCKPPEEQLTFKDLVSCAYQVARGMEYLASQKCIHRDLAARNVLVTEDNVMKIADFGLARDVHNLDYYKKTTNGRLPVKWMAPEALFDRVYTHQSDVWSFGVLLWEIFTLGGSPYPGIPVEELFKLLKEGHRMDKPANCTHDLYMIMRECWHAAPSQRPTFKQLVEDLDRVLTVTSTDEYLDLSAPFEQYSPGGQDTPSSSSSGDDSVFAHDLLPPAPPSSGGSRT
EPHB2, sequence (P29323 whole entry, looked up): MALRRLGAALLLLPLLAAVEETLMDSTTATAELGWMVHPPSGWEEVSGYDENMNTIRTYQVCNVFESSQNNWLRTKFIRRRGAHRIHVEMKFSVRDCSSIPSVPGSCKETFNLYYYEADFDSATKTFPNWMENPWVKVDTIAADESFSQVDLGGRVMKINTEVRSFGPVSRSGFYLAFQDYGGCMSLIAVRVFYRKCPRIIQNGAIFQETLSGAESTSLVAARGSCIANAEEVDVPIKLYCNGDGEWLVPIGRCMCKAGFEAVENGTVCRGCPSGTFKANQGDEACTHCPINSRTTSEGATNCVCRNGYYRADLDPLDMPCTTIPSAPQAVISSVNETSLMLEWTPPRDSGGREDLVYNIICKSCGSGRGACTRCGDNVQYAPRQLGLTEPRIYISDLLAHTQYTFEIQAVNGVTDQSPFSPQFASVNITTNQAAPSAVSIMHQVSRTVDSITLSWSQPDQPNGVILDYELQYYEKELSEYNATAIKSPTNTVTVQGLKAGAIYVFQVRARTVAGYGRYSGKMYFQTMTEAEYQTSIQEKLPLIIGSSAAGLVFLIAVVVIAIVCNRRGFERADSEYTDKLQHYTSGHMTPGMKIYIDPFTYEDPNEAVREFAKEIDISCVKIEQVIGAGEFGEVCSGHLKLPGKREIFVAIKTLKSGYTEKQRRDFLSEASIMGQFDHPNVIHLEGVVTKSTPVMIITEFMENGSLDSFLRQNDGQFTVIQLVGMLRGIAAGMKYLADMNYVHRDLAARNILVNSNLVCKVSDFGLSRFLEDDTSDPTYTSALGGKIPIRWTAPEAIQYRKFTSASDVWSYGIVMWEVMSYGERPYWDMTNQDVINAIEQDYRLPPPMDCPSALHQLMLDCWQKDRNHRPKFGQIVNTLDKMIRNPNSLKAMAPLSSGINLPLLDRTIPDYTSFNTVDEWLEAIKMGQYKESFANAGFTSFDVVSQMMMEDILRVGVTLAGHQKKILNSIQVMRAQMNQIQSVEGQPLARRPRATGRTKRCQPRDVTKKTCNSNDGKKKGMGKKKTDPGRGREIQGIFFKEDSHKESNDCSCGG
Fes, sequence (P07332 whole entry, looked up): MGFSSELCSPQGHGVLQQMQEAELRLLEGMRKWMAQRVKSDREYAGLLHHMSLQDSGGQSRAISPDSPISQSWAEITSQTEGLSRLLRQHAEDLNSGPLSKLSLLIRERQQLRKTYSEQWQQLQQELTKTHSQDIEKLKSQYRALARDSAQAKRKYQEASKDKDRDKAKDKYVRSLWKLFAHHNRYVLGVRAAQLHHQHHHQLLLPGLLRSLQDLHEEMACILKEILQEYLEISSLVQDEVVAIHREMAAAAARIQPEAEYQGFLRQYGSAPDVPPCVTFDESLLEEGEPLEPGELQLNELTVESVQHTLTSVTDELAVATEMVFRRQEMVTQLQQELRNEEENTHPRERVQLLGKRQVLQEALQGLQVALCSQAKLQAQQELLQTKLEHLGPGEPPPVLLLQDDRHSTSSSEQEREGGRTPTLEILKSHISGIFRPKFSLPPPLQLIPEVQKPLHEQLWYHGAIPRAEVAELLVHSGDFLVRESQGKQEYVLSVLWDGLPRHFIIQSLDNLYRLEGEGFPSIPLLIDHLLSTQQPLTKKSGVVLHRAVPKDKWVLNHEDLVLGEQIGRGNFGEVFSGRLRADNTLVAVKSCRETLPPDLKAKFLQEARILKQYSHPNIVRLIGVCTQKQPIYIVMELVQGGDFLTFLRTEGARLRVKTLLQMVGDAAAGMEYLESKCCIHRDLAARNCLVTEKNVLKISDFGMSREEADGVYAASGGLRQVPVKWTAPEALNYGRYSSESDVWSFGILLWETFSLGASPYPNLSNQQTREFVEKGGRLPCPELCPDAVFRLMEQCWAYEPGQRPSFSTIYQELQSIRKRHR
Fyn, sequence (P06241 whole entry, looked up): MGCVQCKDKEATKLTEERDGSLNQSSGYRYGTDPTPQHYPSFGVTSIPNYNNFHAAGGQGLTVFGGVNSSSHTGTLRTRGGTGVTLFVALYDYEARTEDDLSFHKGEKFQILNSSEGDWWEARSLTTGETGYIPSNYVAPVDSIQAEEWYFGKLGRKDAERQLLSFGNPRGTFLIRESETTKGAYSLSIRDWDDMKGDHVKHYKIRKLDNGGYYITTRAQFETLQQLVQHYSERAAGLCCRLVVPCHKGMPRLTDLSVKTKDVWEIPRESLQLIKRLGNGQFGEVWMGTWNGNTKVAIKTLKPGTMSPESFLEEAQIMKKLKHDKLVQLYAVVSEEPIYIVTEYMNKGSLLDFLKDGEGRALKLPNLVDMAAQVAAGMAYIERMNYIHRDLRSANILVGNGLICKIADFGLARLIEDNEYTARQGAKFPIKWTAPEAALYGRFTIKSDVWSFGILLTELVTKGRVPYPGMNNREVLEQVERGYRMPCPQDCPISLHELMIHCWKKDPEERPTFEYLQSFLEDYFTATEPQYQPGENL

SH2 binding enrichment [14]	SH2 binding enrichment [15]	SH2 binding enrichment [16]	Sequence	phosphorylation enrichment [1]	phosphorylation enrichment [2]	phosphorylation enrichment [3]	phosphorylation enrichment [4]	phosphorylation enrichment [5]	phosphorylation enrichment [6]	phosphorylation enrichment [7]	phosphorylation enrichment [8]	phosphorylation enrichment [9]	phosphorylation enrichment [10]	phosphorylation enrichment [11]	phosphorylation enrichment [12]	phosphorylation enrichment [13]
0.956	0.594	0.554	DTQNSYRCATS [TSC1_Y304_G305R]	0.771	0.389	0.501	0.565	0.486	0.392	0.726	0.538	0.42	0.612	0.466	0.593	0.449
1.06	0.95	0.644	DVQNAYDSNHC [ZFYVE16_Y36]	0.999	0.505	0.495	0.487	0.719	0.555	0.949	0.495	0.533	0.681	0.574	0.723	0.495
0.93	0.772	21.4	EADRKYEEVAG [TPM3_Y163_R168G]	1.12	0.655	0.578	0.6	0.685	0.464	1.07	0.508	0.523	0.998	0.48	0.613	0.452
0.775	0.679	0.465	EAIAKYDFKAT [GRB2_Y7]	0.658	0.488	0.412	0.587	0.528	0.327	0.827	0.408	0.387	0.597	0.396	0.618	0.393
0.818	0.689	0.485	EARRVYGDIIF [ALDH5A1_Y175_H180Y_YF]	0.683	0.4	0.448	0.505	0.578	0.493	0.897	0.635	0.509	0.719	0.536	0.637	0.654
0.994	0.674	0.466	EASGIYVKSII [PATJ_Y396]	1.02	0.543	0.535	0.523	0.659	0.492	1.13	0.429	0.52	0.983	0.438	0.677	0.458
0.785	0.525	0.567	EATKGYLDDPT [G6PD_Y322]	0.859	0.655	0.473	0.412	0.593	0.553	1.03	0.424	0.421	0.949	0.455	0.774	0.392
0.746	0.623	0.436	ECKLFYSRKEG [PTPN11_Y263_L262F]	1.08	0.502	0.451	0.457	0.602	0.445	1	0.401	0.626	0.685	0.515	0.768	0.465
0.83	0.617	0.488	EDEGLYTVRVP [MYOM3_Y343_M344T]	1.64	0.766	0.692	0.633	0.939	1.38	1.24	3.52	4.08	1.04	1.84	0.737	3.4
0.797	0.616	0.435	EDKFMYLEFPQ [PTEN_Y240_F241L]	1.71	0.879	0.756	2.44	2.26	0.673	1.34	0.889	1.01	1.38	0.664	1.14	1.2
0.941	0.831	0.514	EDKSIYRRGAC [PRKCI_Y125_R130C]	0.496	0.34	0.429	0.42	0.495	0.35	0.705	0.375	0.405	0.532	0.406	0.474	0.315
0.947	1.39	0.669	EEALYYLTRVE [SET_Y119_H118Y]	2.55	1.85	1.91	9.54	9.52	5.28	1.43	4.26	4.07	2.69	6.68	1.53	4.59
0.691	1.7	1.13	EELLHYAIVTP [POC5_Y37]	1.48	3.27	1.49	1.33	1.1	6.7	1.24	0.723	1.23	1.04	5.76	1.56	1.09
1.01	0.482	0.559	EEQKKYYNATK [SCN5A_Y1494_M1498T]	0.59	0.543	0.521	1.29	0.554	0.421	0.673	0.467	0.478	0.476	0.411	0.407	0.363
20.6	1.22	1.45	EERNTYVNTTL [TEK_Y1102_K1100N]	0.694	0.955	0.531	0.515	0.454	0.404	0.83	0.446	0.53	0.551	0.675	0.638	0.43
0.707	0.727	0.503	EFAAGYNVKFD [GPX4_Y123]	0.739	0.425	0.397	0.697	0.544	0.483	0.862	0.465	0.449	0.502	0.461	0.389	0.419
0.86	0.782	0.694	EFHRLYEEFTR [PIK3R1_Y467_D464H_YF]	0.97	5.22	2.58	0.573	0.579	3.87	0.941	7.21	7.49	0.714	4.42	0.709	5.59

SH2 binding enrichment [14]	SH2 binding enrichment [15]	SH2 binding enrichment [16]	Sequence	phosphorylation enrichment [1]	phosphorylation enrichment [2]	phosphorylation enrichment [3]	phosphorylation enrichment [4]	phosphorylation enrichment [5]	phosphorylation enrichment [6]	phosphorylation enrichment [7]	phosphorylation enrichment [8]	phosphorylation enrichment [9]	phosphorylation enrichment [10]	phosphorylation enrichment [11]	phosphorylation enrichment [12]	phosphorylation enrichment [13]
1.24	0.895	0.743	EFISEFCGEII [EZH2_Y641_Y641F]	1.52	0.566	0.719	0.574	0.885	0.591	1.42	0.507	0.518	1.44	0.638	1.22	0.618
0.912	0.86	0.596	EFRFIYMAVQH [PTPN11_Y515_Q510E_YF]	1.31	0.881	0.737	0.555	0.864	1.01	1.35	1.42	1.63	1.18	0.519	1.16	2.05
0.665	0.519	0.316	EFSNQYKATIG [RAB7A_Y37_K32E]	0.455	0.411	0.413	0.405	0.474	0.442	0.559	0.339	0.446	0.52	0.342	0.524	0.311
6.49	0.728	1.02	EHLNRYINDTF [TTLL10_Y446_S448N]	0.853	0.567	0.608	0.525	0.654	0.53	1.08	0.467	0.49	1.08	0.46	0.751	0.517
0.682	0.619	0.615	EIEFLYNENTV [IARS1_Y680]	1.35	0.641	0.584	0.645	0.724	0.632	1.26	0.479	0.622	1.26	0.515	0.927	0.557
0.742	0.539	4.96	EIIPFYGMSTY [FNDC3B_Y175]	0.751	0.685	0.681	0.454	0.709	0.88	0.875	0.864	1.1	0.768	0.687	0.818	0.902
0.7	0.567	0.417	EILLSDLRTGF [TGM1_Y365_Y365D_YF]	0.779	0.42	0.477	0.487	0.56	0.576	0.891	0.464	0.478	0.69	0.378	0.631	0.418
0.91	1.11	21.6	EIVHRYVELLD [AP1S3_Y87]	0.892	0.483	0.53	0.41	0.673	0.499	1.06	0.464	0.504	0.922	0.506	0.744	0.498
0.834	0.729	0.581	EKEKEYMLPLD [DNM2_Y563_K562E]	1.1	0.48	0.414	0.443	0.604	0.388	0.959	0.421	0.469	0.743	0.442	0.479	0.358
0.794	0.655	0.46	EKKDLYKAGEQ [CFH_Y1008_V1007L]	0.705	0.382	0.432	0.356	0.647	0.431	0.799	0.43	0.374	0.606	0.374	0.62	0.369
0.686	0.783	0.453	EKKKFYDAKIE [CASP5_Y104_T106A_YF]	0.751	0.4	0.409	0.431	0.534	0.435	0.803	0.369	0.468	1.05	0.349	0.718	0.466
1.19	0.934	0.878	EKRDAYVSCLN [GSR_Y150_R153C]	0.925	0.568	0.472	0.563	0.702	0.437	1.1	0.481	0.53	0.726	0.472	0.776	0.514
1.03	0.726	0.484	ELCSEYRKSRK [SPINK5_Y440]	0.562	0.425	0.489	0.429	0.394	0.457	0.803	0.378	0.412	0.474	0.443	0.555	0.375
0.802	0.516	0.582	ELQDDYEDTME [SLC4A1_Y8_M11T]	1.47	0.942	0.836	0.649	0.972	0.805	1.39	0.77	0.649	1.47	0.526	1	0.603
1.25	0.741	1.04	ELTTCYRKKCS [CCBE1_Y70_C75S]	0.764	0.431	0.565	0.536	0.501	0.362	0.816	0.454	0.458	1.12	0.467	0.64	0.444
0.852	0.523	0.744	ENGPFYASFPP [GDAP2_Y488_T489A_YF]	0.819	9.38	10.4	3.05	2.07	7.77	0.858	9.94	8.77	0.951	11.5	14.9	7.57
